B1: Azoarcus group I ribozyme (parent)
chain: GUGCCUUGCGCCGGGAAACCACGCAAGGGAUGGUGUCAAAUUCGGCGAAACCUAAGCGCCCGCCCGGGCGUAUGGCAACGCCGAGCCAAGCUUCGGCGCCUGCGCCGAUGAAGGUGUAGAGACUAGACGGCACCCACCUAAGGCAAACGCUAUGGUGAAGGCAUAGUCCAGGGAGUGGCGAAAGUCACACAAACCGG

Variants of: B1
Experiment: reverse-splicing fitness (ratio to wild type); higher = more active; in vitro selection; Mg2+ level not given
Method in brief: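 An in vitro group I ribozyme library with randomized positions was T7-transcribed and gel-purified. In triplicate, 10 pmol RNA in EPPS pH 7.5 was reacted with 50 pmoles of a 30-nt RNA substrate for 1 h at 37 °C across several added MgCl2 levels (1–48 mM), then stopped with EDTA. Products were reverse transcribed from a substrate-complementary primer, PCR-amplified and sequenced (HiSeq 4000). Fitness is a variant's read proportion after selection over that before, normalised to wild type.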

Question: Which reverse-splicing fitness does the source give for A111U A120U A145U C150A C169A U176A here?
Answer: 0.00284

Question: Which reverse-splicing fitness does the source give for A111U A120U C150G C169G U176A here?
Answer: 0.00371

Question: For A111U A120U C150G C169G U176G, which reverse-splicing fitness is on record?
Answer: 0.00237

Question: Which reverse-splicing fitness does the source give for A111U A120U C150G C169G U176C here?
Answer: 0.00285

Question: Which reverse-splicing fitness does the source give for A111U A120U A145C U176A here?
Answer: 0.194

Question: For A111U A120U A145C U176G, which reverse-splicing fitness is on record?
Answer: 0.0539

Question: Which reverse-splicing fitness does the source give for A111U A120U A145C U176C here?
Answer: 0.168

Question: Which reverse-splicing fitness does the source give for A111U A120U A145U C150G C169U here?
Answer: 0.00751

Question: Which reverse-splicing fitness does the source give for A111U A120U A145U C150G C169G here?
Answer: 0.00597

Question: With A111U A120U A145U C150G C169A as the variant, how does the reverse-splicing fitness read?
Answer: 0.00326

Question: Which reverse-splicing fitness does the source give for A111U A120U A145U C150U C169A U176G here?
Answer: 0.00264

Question: Which reverse-splicing fitness does the source give for A111U A120U A145U C150U C169A U176A here?
Answer: 0.00308

Question: For A111U A120U A145U C150U C169A U176C, which reverse-splicing fitness is on record?
Answer: 0.00309

Question: For A111U A120U C150A C169A, which reverse-splicing fitness is on record?
Answer: 0.00436

Question: For A111U A120U C150A C169U, which reverse-splicing fitness is on record?
Answer: 0.00846

Question: With A111U A120U C150A C169G as the variant, how does the reverse-splicing fitness read?
Answer: 0.00631

Question: With A111U A120U A145U C169A as the variant, how does the reverse-splicing fitness read?
Answer: 0.00401

Question: For A111U A120U A145U C169G, which reverse-splicing fitness is on record?
Answer: 0.0519

Question: Which reverse-splicing fitness does the source give for A111U A120U A145U C169U here?
Answer: 0.0617

Question: Which reverse-splicing fitness does the source give for A111U A120U C150U C169G U176C here?
Answer: 0.00679

Question: For A111U A120U C150U C169G U176G, which reverse-splicing fitness is on record?
Answer: 0.00213

Question: With A111U A120U C150U C169G U176A as the variant, how does the reverse-splicing fitness read?
Answer: 0.00847

Question: Which reverse-splicing fitness does the source give for A111U A120U A145C C169A U176C here?
Answer: 0.00249

Question: Which reverse-splicing fitness does the source give for A111U A120U A145C C169A U176A here?
Answer: 0.0026

Question: With A111U A120U A145C C169A U176G as the variant, how does the reverse-splicing fitness read?
Answer: 0.00152

Question: For A111U A120U A145U C150G, which reverse-splicing fitness is on record?
Answer: 0.0604

Question: With A111U A120U A145U C150A as the variant, how does the reverse-splicing fitness read?
Answer: 0.0527

Question: With A111U A120U A145U C150U as the variant, how does the reverse-splicing fitness read?
Answer: 0.405

Question: Which reverse-splicing fitness does the source give for A111U A120U A145C C150G C169A here?
Answer: 0.0033

Question: With A111U A120U A145C C150G C169G as the variant, how does the reverse-splicing fitness read?
Answer: 0.00697

Question: For A111U A120U A145C C150G C169U, which reverse-splicing fitness is on record?
Answer: 0.00895

Question: Which reverse-splicing fitness does the source give for A111U A120U C169U U176A here?
Answer: 0.0126

Question: For A111U A120U C169U U176G, which reverse-splicing fitness is on record?
Answer: 0.00332

Question: For A111U A120U C169U U176C, which reverse-splicing fitness is on record?
Answer: 0.0202

Question: For A111U A120U C150A U176C, which reverse-splicing fitness is on record?
Answer: 0.0318

Question: With A111U A120U C150A U176A as the variant, how does the reverse-splicing fitness read?
Answer: 0.0294

Question: With A111U A120U C150A U176G as the variant, how does the reverse-splicing fitness read?
Answer: 0.0103

Question: Which reverse-splicing fitness does the source give for A111U A120U C150G C169A here?
Answer: 0.00749

Question: With A111U A120U C150G C169G as the variant, how does the reverse-splicing fitness read?
Answer: 0.00802

Question: Which reverse-splicing fitness does the source give for A111U A120U C150G C169U here?
Answer: 0.00855

Question: For A111U A145C C150U C169U, which reverse-splicing fitness is on record?
Answer: 0.0312

Question: With A111U A145C C150U C169A as the variant, how does the reverse-splicing fitness read?
Answer: 0.0113

Question: With A111U A145C C150U C169G as the variant, how does the reverse-splicing fitness read?
Answer: 0.0177

Question: With A111U A120U C169A U176G as the variant, how does the reverse-splicing fitness read?
Answer: 0.00214

Question: Which reverse-splicing fitness does the source give for A111U A120U C169A U176C here?
Answer: 0.00373

Question: Which reverse-splicing fitness does the source give for A111U A120U C169A U176A here?
Answer: 0.00255

Question: Which reverse-splicing fitness does the source give for A111U A120U C150A C169G U176A here?
Answer: 0.00698

Question: Which reverse-splicing fitness does the source give for A111U A120U C150A C169G U176G here?
Answer: 0.00254

Question: Which reverse-splicing fitness does the source give for A111U A120U C150A C169G U176C here?
Answer: 0.00445

Question: Which reverse-splicing fitness does the source give for A111U A120U A145C C150U C169A here?
Answer: 0.00229

Question: With A111U A120U A145C C150U C169G as the variant, how does the reverse-splicing fitness read?
Answer: 0.0115

Question: Which reverse-splicing fitness does the source give for A111U A120U A145C C150U C169U here?
Answer: 0.0159

Question: Which reverse-splicing fitness does the source give for A111U A145G C150A C169G here?
Answer: 0.0147

Question: Which reverse-splicing fitness does the source give for A111U A145G C150A C169U here?
Answer: 0.0213

Question: Which reverse-splicing fitness does the source give for A111U A145G C150A C169A here?
Answer: 0.0132

Question: Which reverse-splicing fitness does the source give for A111U A120U A145U C169A U176A here?
Answer: 0.00253

Question: With A111U A120U A145U C169A U176C as the variant, how does the reverse-splicing fitness read?
Answer: 0.00283

Question: Which reverse-splicing fitness does the source give for A111U A120U A145U C169A U176G here?
Answer: 0.00231

Question: For A111U A120U A145C C150U C169A U176C, which reverse-splicing fitness is on record?
Answer: 0.00198

Question: Which reverse-splicing fitness does the source give for A111U A120U A145C C150U C169A U176G here?
Answer: 0.00275

Question: For A111U A120U A145C C150U C169A U176A, which reverse-splicing fitness is on record?
Answer: 0.00251

Question: For A111U A120U A145G C150G, which reverse-splicing fitness is on record?
Answer: 0.0631

Question: Which reverse-splicing fitness does the source give for A111U A120U A145G C150A here?
Answer: 0.0883

Question: For A111U A120U A145G C150U, which reverse-splicing fitness is on record?
Answer: 0.486

Question: Which reverse-splicing fitness does the source give for A111U A145G C150A C169U U176A here?
Answer: 0.0173

Question: For A111U A120U A145U C150A C169G U176G, which reverse-splicing fitness is on record?
Answer: 0.00225

Question: For A111U A120U A145U C150A C169G U176C, which reverse-splicing fitness is on record?
Answer: 0.00325

Question: For A111U A120U A145U C150A C169G U176A, which reverse-splicing fitness is on record?
Answer: 0.00269

Question: With A111U A120U A145G C169G as the variant, how does the reverse-splicing fitness read?
Answer: 0.0528

Question: For A111U A120U A145G C169U, which reverse-splicing fitness is on record?
Answer: 0.076

Question: Which reverse-splicing fitness does the source give for A111U A120U A145G C169A here?
Answer: 0.00419

Question: For A111U A145C C150A C169G U176C, which reverse-splicing fitness is on record?
Answer: 0.0127

Question: Which reverse-splicing fitness does the source give for A111U A145C C150A C169G U176G here?
Answer: 0.00622

Question: For A111U A145C C150A C169G U176A, which reverse-splicing fitness is on record?
Answer: 0.0227

Question: Which reverse-splicing fitness does the source give for A111U A120U here?
Answer: 0.634

Question: Which reverse-splicing fitness does the source give for A111U A120U A145C C169U U176G here?
Answer: 0.00245

Question: Which reverse-splicing fitness does the source give for A111U A120U A145C C169U U176C here?
Answer: 0.00989

Question: Which reverse-splicing fitness does the source give for A111U A120U A145C C169U U176A here?
Answer: 0.00945

Question: With A111U A120U A145G U176C as the variant, how does the reverse-splicing fitness read?
Answer: 0.266

Question: For A111U A120U A145G U176G, which reverse-splicing fitness is on record?
Answer: 0.0546

Question: With A111U A120U A145G U176A as the variant, how does the reverse-splicing fitness read?
Answer: 0.27

Question: For A111U A120U A145G C169A U176A, which reverse-splicing fitness is on record?
Answer: 0.00212

Question: For A111U A120U A145G C169A U176G, which reverse-splicing fitness is on record?
Answer: 0.00247

Question: For A111U A120U A145G C169A U176C, which reverse-splicing fitness is on record?
Answer: 0.00376
